Kd data for two molecules are collected here from PMC10076392 (2023).

B1: PBP1b (aa58-804) (enzyme)
chain: KPRGKRGWLWLLLKLAIVFAVLIAIYGVYLDQKIRSRIDGKVWQLPAAVYGRMVNLEPDMTISKNEMVKLLEATQYRQVSKMTRPGEFTVQANSIEMIRRPFDFPDSKEGQVRARLTFDGDHLATIVNMENNRQFGFFRLDPRLITMISSPNGEQRLFVPRSGFPDLLVDTLLATEDRHFYEHDGISLYSIGRAVLANLTAGRTVQGASTLTQQLVKNLFLSSERSYWRKANEAYMALIMDARYSKDRILELYMNEVYLGQSGDNEIRGFPLASLYYFGRPVEELSLDQQALLVGMVKGASIYNPWRNPKLALERRNLVLRLLQQQQIIDQELYDMLSARPLGVQPRGGVISPQPAFMQLVRQELQAKLGDKVKDLSGVKIFTTFDSVAQDAAEKAAVEGIPALKKQRKLSDLETAIVVVDRFSGEVRAMVGGSEPQFAGYNRAMQARRSIGSLAKPATYLTALSQPKIYRLNTWIADAPIALRQPNGQVWSPQNDDRRYSESGRVMLVDALTRSMNVPTVNLGMALGLPAVTETWIKLGVPKDQLHPVPAMLLGALNLTPIEVAQAFQTIASGGNRAPLSALRSVIAEDGKVLYQSFPQAERAVPAQAAYLTLWTMQQVVQRGTGRQLGAKYPNLHLAGKTGTTNNNVDTWFAGIDGSTVTITWVGRDNNQPTKLYGASGAMSIYQRYLANQTPTPLNLVPPEDIADMGVDYDGNFVCSGGMRILPVWTSDPQSLCQQSEMQQQPS

Holding throughout (assay): BLI
The target of assay [1] is FtsB-FtsL-FtsQ complex, His-tagged (E. coli strain K12, UniProt P0A6S5 1-103; P0AEN4 1-121; P06136 1-276, S3N | R4K | V5L).
For the assay “PBP1b (aa58-804)”, the target named is B1.
Assay [2] deals with FtsB-FtsL-FtsQ complex, analyte of the BLI assay (E. coli strain K12, UniProt P0A6S5 1-103; P0AEN4 1-121; P06136 1-276, S3N | R4K | V5L).

Usually Kd stands for the constant that tells how readily two partners part at equilibrium. Low readings indicate higher affinity, high ones lower affinity. In assay [1], B1 had a Kd of 930 nM. In other words, the sub-micromolar range.

B2: FtsW-FtsI complex, His-tagged (complex)
chain 1: MRLSLPRLKMPRLPGFSILVWISTALKGWVMGSREKDTDSLIMYDRTLLWLTFGLAAIGFIMVTSASMPIGQRLTNDPFFFAKRDGVYLILAFILAIITLRLPMEFWQRYSATMLLGSIILLMIVLVVGSSVKGASRWIDLGLLRIQPAELTKLSLFCYIANYLVRKGDEVRNNLRGFLKPMGVILVLAVLLLAQPDLGTVVVLFVTTLAMLFLAGAKLWQFIAIIGMGISAVVLLILAEPYRIRRVTAFWNPWEDPFGSGYQLTQSLMAFGRGELWGQGLGNSVQKLEYLPEAHTDFIFAIIGEELGYVGVVLALLMVFFVAFRAMSIGRKALEIDHRFSGFLACSIGIWFSFQALVNVGAAAGMLPTKGLTLPLISYGGSSLLIMSTAIMMLLRIDYETRLEKAQAFVRGSR
chain 2: MKAAAKTQKPKRQEEHANFISWRFALLCGCILLALAFLLGRVAWLQVISPDMLVKEGDMRSLRVQQVSTSRGMITDRSGRPLAVSVPVKAIWADPKEVHDAGGISVGDRWKALANALNIPLDQLSARINANPKGRFIYLARQVNPDMADYIKKLKLPGIHLREESRRYYPSGEVTAHLIGFTNVDSQGIEGVEKSFDKWLTGQPGERIVRKDRYGRVIEDISSTDSQAAHNLALSIDERLQALVYRELNNAVAFNKAESGSAVLVDVNTGEVLAMANSPSYNPNNLSGTPKEAMRNRTITDVFEPGSTVKPMVVMTALQRGVVRENSVLNTIPYRINGHEIKDVARYSELTLTGVLQKSSNVGVSKLALAMPSSALVDTYSRFGLGKATNLGLVGERSGLYPQKQRWSDIERATFSFGYGLMVTPLQLARVYATIGSYGIYRPLSITKVDPPVPGERVFPESIVRTVVHMMESVALPGGGGVKAAIKGYRIAIKTGTAKKVGPDGRYINKYIAYTAGVAPASQPRFALVVVINDPQAGKYYGGAVSAPVFGAIMGGVLRTMNIEPDALTTGDKNEFV
Take B2: the Kd in the assay with PBP1b (aa58-804) stood at 530 nM; in assay [2] it was 180 nM.
